# Key:
# Test in all cases: split reporter (BiFC, NanoBiT); CFP 1-158 on the N-terminus of α12.2 (WT, Bdel1 or Bdel2), CFP 159-238 on the C-terminus of β3core; HEK-293 cells co-transfected with α2δ1 and an RFP (mCherry or DsRed-Monomer, pooled); median of the cyan/red ratio of single cells
# [1] = molecular target: Bdel1 α12.2 tagged with the CFP 1–158 fragment (rat)
# [2] = molecular target: Bdel2 α12.2 tagged with the CFP 1–158 fragment (rat)
# [3] = molecular target: WT α12.2 tagged with the CFP 1–158 fragment (rat)
# Sequence of WT α12.2 tagged with the CFP 1–158 fragment (rat) (Q02294 whole entry, the tested form may be a part): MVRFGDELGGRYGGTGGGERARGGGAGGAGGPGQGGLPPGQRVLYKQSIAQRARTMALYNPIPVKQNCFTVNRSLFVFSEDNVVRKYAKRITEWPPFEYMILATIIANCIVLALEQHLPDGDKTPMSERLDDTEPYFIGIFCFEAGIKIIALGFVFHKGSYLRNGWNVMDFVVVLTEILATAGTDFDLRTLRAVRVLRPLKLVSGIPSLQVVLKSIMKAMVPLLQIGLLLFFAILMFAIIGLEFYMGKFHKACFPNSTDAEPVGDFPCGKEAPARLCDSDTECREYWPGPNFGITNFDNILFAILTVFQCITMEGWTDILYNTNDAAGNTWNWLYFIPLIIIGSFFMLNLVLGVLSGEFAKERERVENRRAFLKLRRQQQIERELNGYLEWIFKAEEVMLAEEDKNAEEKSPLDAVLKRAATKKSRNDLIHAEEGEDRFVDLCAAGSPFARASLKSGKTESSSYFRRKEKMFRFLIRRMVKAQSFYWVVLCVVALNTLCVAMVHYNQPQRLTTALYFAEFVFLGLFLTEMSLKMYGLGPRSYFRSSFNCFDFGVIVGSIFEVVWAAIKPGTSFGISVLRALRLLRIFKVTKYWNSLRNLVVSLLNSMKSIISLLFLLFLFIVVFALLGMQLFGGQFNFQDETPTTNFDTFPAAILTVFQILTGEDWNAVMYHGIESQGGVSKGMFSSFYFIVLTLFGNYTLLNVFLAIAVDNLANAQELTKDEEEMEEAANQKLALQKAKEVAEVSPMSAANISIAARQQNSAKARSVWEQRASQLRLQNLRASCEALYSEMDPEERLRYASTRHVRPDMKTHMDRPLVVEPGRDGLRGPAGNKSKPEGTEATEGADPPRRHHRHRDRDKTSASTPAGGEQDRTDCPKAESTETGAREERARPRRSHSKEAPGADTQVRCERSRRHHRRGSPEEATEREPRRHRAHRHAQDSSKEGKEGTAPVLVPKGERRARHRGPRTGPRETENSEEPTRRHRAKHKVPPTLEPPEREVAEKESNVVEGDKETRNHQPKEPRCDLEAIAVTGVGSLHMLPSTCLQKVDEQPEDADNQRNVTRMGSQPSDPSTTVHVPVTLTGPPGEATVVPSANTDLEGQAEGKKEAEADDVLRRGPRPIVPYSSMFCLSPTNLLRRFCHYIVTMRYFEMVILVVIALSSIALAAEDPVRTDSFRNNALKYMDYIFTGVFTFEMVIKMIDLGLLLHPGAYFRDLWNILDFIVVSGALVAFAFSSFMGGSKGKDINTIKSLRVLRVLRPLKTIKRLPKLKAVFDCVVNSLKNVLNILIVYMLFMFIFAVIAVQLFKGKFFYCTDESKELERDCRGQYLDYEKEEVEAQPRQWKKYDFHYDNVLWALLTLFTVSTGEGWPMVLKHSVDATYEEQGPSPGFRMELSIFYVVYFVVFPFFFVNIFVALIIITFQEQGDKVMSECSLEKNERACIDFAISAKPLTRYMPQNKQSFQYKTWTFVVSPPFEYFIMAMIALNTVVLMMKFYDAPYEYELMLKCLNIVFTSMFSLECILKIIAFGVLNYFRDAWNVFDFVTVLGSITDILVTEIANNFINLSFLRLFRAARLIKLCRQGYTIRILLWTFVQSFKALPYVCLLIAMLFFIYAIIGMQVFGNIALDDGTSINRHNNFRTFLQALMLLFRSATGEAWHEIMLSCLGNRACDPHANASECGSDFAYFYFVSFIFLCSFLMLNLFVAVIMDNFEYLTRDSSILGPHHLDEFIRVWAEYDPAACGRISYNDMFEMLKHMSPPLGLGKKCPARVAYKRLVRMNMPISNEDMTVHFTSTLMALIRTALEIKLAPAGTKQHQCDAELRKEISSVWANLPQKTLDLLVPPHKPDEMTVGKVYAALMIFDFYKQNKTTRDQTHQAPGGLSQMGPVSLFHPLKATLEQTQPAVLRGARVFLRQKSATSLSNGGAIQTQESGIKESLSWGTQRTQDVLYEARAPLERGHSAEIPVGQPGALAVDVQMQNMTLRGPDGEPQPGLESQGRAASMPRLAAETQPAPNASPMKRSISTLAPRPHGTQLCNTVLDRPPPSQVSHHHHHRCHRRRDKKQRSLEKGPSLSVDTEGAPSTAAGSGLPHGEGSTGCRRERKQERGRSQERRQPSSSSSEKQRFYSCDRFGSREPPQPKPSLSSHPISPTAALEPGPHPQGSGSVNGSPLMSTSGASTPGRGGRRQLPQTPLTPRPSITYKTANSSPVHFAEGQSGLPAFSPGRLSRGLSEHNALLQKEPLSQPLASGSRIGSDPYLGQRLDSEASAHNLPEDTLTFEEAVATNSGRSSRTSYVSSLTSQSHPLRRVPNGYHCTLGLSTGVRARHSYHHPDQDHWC
substance,measurement,setting,value
β3-core tagged with the CFP 159–238 fragment (from UniProt P54287 16-366) (domain or fragment),median ratio of cyan (BiFC) to red fluorescence,[1],0.77
same,median ratio of cyan (BiFC) to red fluorescence,[2],0.32
same,median ratio of cyan (BiFC) to red fluorescence,[3],0.23

# Source: article PMC2570331
